Laboratory results reported in patent US20110112279A1.

Molecular target: receptor for STOP-1 on the cell surface (unidentified; HeLa, HT1080, HUVEC and MDA-MB-435 cells) (human)
Assay: flow cytometry on MDA-MB-435 cells, flag-tagged STOP-1 alone, anti-flag M2-FITC detection; detection antibody alone gave approximately 7.99

Work on “flag-tagged full length human STOP-1 (from UniProt Q96CG8 31-243) (ligand)” yielded a geometric mean value of the signal intensity of 13.2.
